The source of these data is paper PMC10425332, “Programming conformational cooperativity to regulate allosteric protein-oligonucleotide signal transduction”.

Data set [1] addresses T1, thrombin (UniProt P00734;P00734 328-363;364-622). Description: PAGE and FAM/BHQ1 fluorescence (release of strand D); Mg2+; indirect read-out; complexes annealed in 1x TAE/Mg2+ buffer, DNA complex about 0.5-0.6 uM; thrombin trigger 2 h at room temperature (cell experiments); pH and Mg2+ concentration n.
Data set [2] has as its target T1, thrombin. Description: PAGE (release of DGFP); Mg2+; indirect read-out; complexes annealed in 1x TAE/Mg2+ buffer, DNA complex about 0.5-0.6 uM; thrombin trigger 2 h at room temperature (cell experiments); pH and Mg2+ concentration n.
Data set [3] deals with T1, thrombin. The data set can be described thus: PAGE and fluorescence (release of strand D); Mg2+; indirect read-out; complexes annealed in 1x TAE/Mg2+ buffer, DNA complex about 0.5-0.6 uM; thrombin trigger 2 h at room temperature (cell experiments); pH and Mg2+ concentration n.

B1: complex CDAB (15Apt and 29Apt thrombin aptamers on B and A) (structured_DNA)
DNA 1: AATGGTCCTATGATTCCGTTTTTTTTTTTTGTCACTAGCTACTAGGTAGCTAGTGACGTTATTTTTTTTATGAGAGAGAGTGTGTCC
DNA 2: TAACGTCACTAGCTACCTTTTTTTTTTTTTTTTTTTTTTTTTTTTTTTTTTTTTTTT
DNA 3: GGACACACTCTCTCTCATTTTAGTCCGTGGTAGGGCAGGTTGGGGTGACT
DNA 4: GGTTGGTGTGGTTGGTTTCGGAATCATAGGACCATT
For the molecule B1, the binding result with thrombin [1] is “binds”.

B2: complex-G C3DGFPAB (T1 3 nt, T2 12 nt) (structured_DNA)
DNA 1: AATGGTCCTATGATTCCGTTTTTTTTTTTTTGCACGCTGCCGTTACGGCAGCGTGCAGCTCTTTTTTTTATGAGAGAGAGTGTGTCC
DNA 2: GAGCTGCACGCTGCCGTCTTTTTTTTTTTTTTTTTTTTTTTTTTTTTTTTTTTTTTTTT
DNA 3: B1 DNA 3
DNA 4: B1 DNA 4
B2: the binding result in the data set with thrombin [2] is on record as “binds”.

B3: single-trigger-site complex with E-29apt (structured_DNA)
DNA 1: B1 DNA 1
DNA 2: B1 DNA 2
DNA 3: GGACACACTCTCTCTCATTTTAGTCCGTGGTAGGGCAGGTTGGGGTGACTTTTCGGAATCATAGGACCATT
Consider B3, for which, in the data set with thrombin [3], the binding result was “binds”.
